These results are taken from patent US20250376519A1 (JIANGSU HENGRUI PHARMACEUTICALS, published 2025).

Substitutions are numbered along the chain they refer to.

Assay [1] deals with T1, human DLL3 (ACRO, DLL3-H52H4) (human, UniProt Q9NYJ7 27-492).
T1 construct: Bought
T1 sequence: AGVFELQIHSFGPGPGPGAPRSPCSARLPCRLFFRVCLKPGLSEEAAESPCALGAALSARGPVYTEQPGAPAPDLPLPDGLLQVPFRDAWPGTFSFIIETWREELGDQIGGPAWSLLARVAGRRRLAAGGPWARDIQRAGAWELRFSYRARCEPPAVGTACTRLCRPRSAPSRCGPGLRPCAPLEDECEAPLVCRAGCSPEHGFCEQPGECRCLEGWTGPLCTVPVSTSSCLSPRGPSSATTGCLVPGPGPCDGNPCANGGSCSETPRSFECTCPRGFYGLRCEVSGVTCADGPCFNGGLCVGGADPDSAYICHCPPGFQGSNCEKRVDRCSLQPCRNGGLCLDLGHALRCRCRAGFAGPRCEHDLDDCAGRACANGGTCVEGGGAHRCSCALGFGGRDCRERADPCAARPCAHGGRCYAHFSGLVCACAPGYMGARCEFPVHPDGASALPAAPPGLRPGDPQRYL
As to the kind of experiment: SPR Biacore 8K, Ab captured on Protein A. The text has this:
Test antibodies were affinity-captured with a Protein A biosensor chip (Cat. #29127556, Cytiva) for 18 seconds, and then the antigens human DLL3 (ACRO, DLL3-H52H4), cynomolgus monkey DLL3 (KACTUS, DLL-RM103), mouse DLL3 (KACTUS, DLL-MM103), human CD3D&3E (ACRO, CDD-H52W1), and monkey CD3D&3E (ACRO, CDD-C52W4) were allowed to flow through the surface of the chip for 180 seconds, followed by 600 seconds of dissociation. Reaction signals were detected in real time using a Biacore 8K (Cytiva) instrument to obtain association and dissociation curves. After the dissociation in each experimental cycle, the chip was washed and regenerated with a 10 mM glycine-hydrochloric acid solution (pH 1.5, Cat. #BR-1003-54, Cytiva). Data fitting was performed using a 1:1 Model.

Assay [2] deals with T2, human DLL3 on cells (human, UniProt Q9NYJ7 27-618).
T2 construct: Endogenous on H1184 and SHP77; Cell line is named under assay; also called H1184; DLL3/H82
T2 sequence: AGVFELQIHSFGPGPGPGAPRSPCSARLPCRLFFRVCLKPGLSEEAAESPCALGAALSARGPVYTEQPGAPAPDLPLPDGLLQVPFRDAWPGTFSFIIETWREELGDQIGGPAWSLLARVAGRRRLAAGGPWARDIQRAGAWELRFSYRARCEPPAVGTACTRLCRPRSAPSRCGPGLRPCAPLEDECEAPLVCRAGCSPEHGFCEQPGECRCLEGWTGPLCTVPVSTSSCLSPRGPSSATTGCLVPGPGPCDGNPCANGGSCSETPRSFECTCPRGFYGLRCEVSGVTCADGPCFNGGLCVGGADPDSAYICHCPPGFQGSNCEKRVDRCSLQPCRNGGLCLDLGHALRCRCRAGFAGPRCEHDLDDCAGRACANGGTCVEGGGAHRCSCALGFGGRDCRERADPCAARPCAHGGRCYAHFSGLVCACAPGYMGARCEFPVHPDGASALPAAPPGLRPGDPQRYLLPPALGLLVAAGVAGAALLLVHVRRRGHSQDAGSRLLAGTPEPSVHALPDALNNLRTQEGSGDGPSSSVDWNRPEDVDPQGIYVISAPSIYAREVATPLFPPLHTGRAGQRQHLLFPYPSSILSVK
Briefly: flow cytometry, DLL3/H82 cells. Further details: key to Emax: geometric mean fluorescence intensity (flow cytometry). On the procedure: (§1) The plates were centrifuged at 300 g for 5 min, and the supernatant was removed. Different concentrations of test antibodies were added at 100 μL/well. The plates were incubated in the dark in a refrigerator at 4° C. for 1 h. After 3 centrifugal washes at 300 g, working concentrations of APC anti-human IgG Fc (BioLegend, 410712) or PE F(ab′)2-goat anti-human IgG (invitrogen, H10104) were added. The plates were incubated in the dark in a refrigerator at 4° C. for 40 min. After 3 centrifugal washes at 300 g, the geometric mean fluorescence intensity was measured on an Invitrogen flow cytometer, and the EC50 values for the binding of the antibodies to DLL3-expressing cells were calculated.

Assay [3] deals with T2, human DLL3 on cells. Briefly: flow cytometry, H1184 cells. Here is the method: as §1

B1: hu30L2H7 (antibody, human IgG1, kappa)
heavy: not shown
light: DIVMTQSPDSLAVSLGERATINCKASENVGYVSWYQQKPGQPPKLLIYGASNRYTGVPDRFSGSGSATDFTLTISSLQAEDVAVYHCGQSYSYPLTFGQGTKLEIKRTVAAPSVFIFPPSDEQLKSGTASVVCLLNNFYPREAKVQWKVDNALQSGNSQESVTEQDSKDSTYSLSSTLTLSKADYEKHKVYACEVTHQGLSSPVTKSFNRGEC
As for B1, in assay [1], binding was put at a Kd of 1090 pM, the koff came out at 0.000983 s⁻¹ and the kon was determined as 900000 M⁻¹ s⁻¹. For the same molecule, in assay [2], the response was half-maximal at 830 pM (EC50) and the Emax is 5580.

B2: hu30L3H3 (antibody, human IgG1, kappa, V domains shown)
VH: EVRLVQSGAEVKKPGASVKVSCKASGYTFTDYYMNWVRQAPGQSLEWMGIINPYQGDTSYNQKFRGRVTLTVDKSASTAYMELSSLRSEDTAVYYCARYHYGPHLEGYFDVWGQGTTVTVSS
VL: DIVMTQSPKSLAVSLGERATINCKASENVGYVSWYQQKPGQSPKLLIYGASNRYTGVPDRFSGSGSATDFTLTISSLQAEDVAVYHCGQSYSYPLTFGQGTKLEIKR
Take B2: in assay [1], the affinity, expressed as Kd, was 1250 pM; the koff is 0.00131 s⁻¹; the kon was 1.05e+06 M⁻¹ s⁻¹. In assay [2], this molecule yielded an EC50 of 430 pM and an Emax of 5300.

B3: hu30L3H6 (antibody, human IgG1, kappa, V domains shown)
VH: B2 VH with Q55N, G56V
VL: B2 VL
Turning to B3, in assay [1], binding was put at a Kd of 939 pM, the koff amounted to 0.000894 s⁻¹ and the kon amounted to 952000 M⁻¹ s⁻¹. In assay [2], the response was half-maximal at 460 pM (EC50) and the Emax turned out to be 5340.

B4: hu30L3H7 (antibody, human IgG1, kappa)
heavy: not shown
light: B1 light with D9K, P42S
For B4, in assay [1], the Kd came to 815 pM, the koff was found to be 0.000853 s⁻¹ and the kon was 1.05e+06 M⁻¹ s⁻¹. In assay [2], this molecule had a 50% effective concentration (EC50) of 430 pM and an Emax of 5450.

B5: hu30L3H1 (antibody, human IgG1, kappa, V domains shown)
VH: B2 VH with R3Q, Q55N, L70I
VL: B2 VL
In assay [1], B5 showed a Kd of 362 pM, a koff of 0.00059 s⁻¹ and a kon of 1.63e+06 M⁻¹ s⁻¹. In assay [2], it took 510 pM to reach a half-maximal effect (EC50) and the Emax was 5530.

B6: hu30L3H2 (antibody, human IgG1, kappa)
heavy: not shown
light: B1 light with D9K, P42S
In assay [1], B6 came in with a Kd of 891 pM, a koff of 0.000762 s⁻¹ and a kon of 855000 M⁻¹ s⁻¹. In assay [2], this molecule had an EC50 of 440 pM and an Emax of 5390.

B7: hu30L3H5 (antibody, human IgG1, kappa, V domains shown)
VH: B2 VH with Q55T
VL: B2 VL
B7: in assay [1], the affinity, expressed as Kd, was 735 pM; the koff was determined as 0.00082 s⁻¹; the kon was 1.12e+06 M⁻¹ s⁻¹. In assay [2], the EC50 stood at 430 pM and the Emax came out at 5250.

B8: hu30L3H4 (antibody, human IgG1, kappa, V domains shown)
VH: B2 VH with Q55S
VL: B2 VL
In assay [1], B8 displayed a Kd of 882 pM, a koff of 0.000956 s⁻¹ and a kon of 1.08e+06 M⁻¹ s⁻¹. For the same molecule, in assay [2], the midpoint of the response, the EC50, lay at 430 pM and the Emax is 5340.

B9: hu6L2H2 (antibody, human IgG1, kappa, V domains shown)
VH: EVQLVQSGAEVKKPGASVKVSCKASGYTFTDYYMNWVRQAPGQRLEWMGIINPYSGVTIYNHKFKGRVTLTVDKSANTAYMELSSLRSEDTAVYYCARQDSLLDYAMDYWGQGTTVTVSS
VL: DIQMTQSPSSLSASVGDRVTITCHASQGISGNMGWLQQKPGKAPKGLIYHGANLEDGVPSRFSGSGSGADYTLTISSLQPEDFATYYCVQYAQFPYTFGGGTKVEIKR
In assay [1], B9 showed a Kd of 1640 pM, a koff of 0.00116 s⁻¹ and a kon of 704000 M⁻¹ s⁻¹. In assay [3], the response was half-maximal at 60 pM (EC50) and the Emax amounted to 2190.

B10: hu6L2H6 (antibody, human IgG1, kappa, V domains shown)
VH: EVQLVQSGSELKKPGASVKVSCKASGYTFTDYYMNWVRQAPGQGLEWMGIINPYSGVTIYNHKFKGRFVLSVDKSSNTAYLQISSLKAEDTAVYYCARQDSLLDYAMDYWGQGTTVTVSS
VL: B9 VL
In assay [1], B10 came in with a Kd of 877 pM, a koff of 0.000756 s⁻¹ and a kon of 863000 M⁻¹ s⁻¹. Also, in assay [3], the EC50 is 50 pM and the Emax worked out at 2420.

B11: hu6L2H11 (antibody, human IgG1, kappa, V domains shown)
VH: B10 VH with R38K
VL: B9 VL
In assay [1], B11 gave a Kd of 363 pM, a koff of 0.000749 s⁻¹ and a kon of 2.06e+06 M⁻¹ s⁻¹. In assay [3], a half-maximal effect (EC50) was put at 40 pM and the Emax stood at 1960.

B12: hu6L4H4 (antibody, human IgG1, kappa, V domains shown)
VH: B9 VH with Q43K
VL: B9 VL with T85D
In assay [1], B12 displayed an equilibrium dissociation constant (Kd) of 1450 pM, a koff of 0.00108 s⁻¹ and a kon of 743000 M⁻¹ s⁻¹. Besides, in assay [3], it took 60 pM to reach a half-maximal effect (EC50) and the Emax was 2310.

B13: hu6L2H12 (antibody, human IgG1, kappa, V domains shown)
VH: B10 VH with V69A
VL: B9 VL
In assay [1], B13 registered a Kd of 461 pM, a koff of 0.000913 s⁻¹ and a kon of 1.98e+06 M⁻¹ s⁻¹. In addition, in assay [3], the EC50 stood at 100 pM and the Emax is 2140.

B14: hu6L2H5 (antibody, human IgG1, kappa, V domains shown)
VH: B10 VH with S76V, N77S
VL: B9 VL
Consider B14, for which, in assay [1], the Kd came out at 969 pM, the koff was determined as 0.000784 s⁻¹ and the kon came out at 810000 M⁻¹ s⁻¹. In assay [3], this molecule returned an EC50 of 60 pM and an Emax of 2490.
